These results are taken from patent US20190170753A1 (ICAHN SCHOOL OF MEDICINE AT MOUNT SINAI, published 2019).

Assay [1] concerns the target T1, C113WT biotin labeled HCV core peptide (hepatitis C virus, also: biotin labeled, position not given here).
T1 peptide: RGSRPSWGPTD
In words: capture EIA with biotin peptide.

In assay [2] the target is T2, C113T109N biotin labeled HCV core peptide (hepatitis C virus, also: biotin labeled, position not given here).
T2 construct: also called C113T110N
T2 peptide: RGSRPSWGPND
In words: capture EIA with biotin peptide.

A further assay deals with HCV core peptide 80 (hepatitis C virus, N-terminal biotin; C-terminal amide). The assay can be described thus: peptide EIA, 2 ug/mL IgG.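 Note: purified mouse IgG binding to individually well-coated synthetic peptides, detected with peroxidase anti-mouse IgG Fc and o-phenylenediamine, IgG incubated at least 1 h at room temperature.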
In a further assay the target is HCV core peptide 57 (hepatitis C virus, N-terminal biotin; C-terminal amide). The assay can be described thus: peptide EIA, 2 ug/mL IgG.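 Note: purified mouse IgG binding to individually well-coated synthetic peptides, detected with peroxidase anti-mouse IgG Fc and o-phenylenediamine, IgG incubated at least 1 h at room temperature.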
The target in the next assay is T3, HCV core peptide 36 (hepatitis C virus, N-terminal biotin; C-terminal amide).
T3 construct: range 71-85
The assay can be described thus: peptide EIA, 2 ug/mL IgG.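 Note: purified mouse IgG binding to individually well-coated synthetic peptides, detected with peroxidase anti-mouse IgG Fc and o-phenylenediamine, IgG incubated at least 1 h at room temperature.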

In another assay the target is T4, HCV core peptide 11 (hepatitis C virus, N-terminal biotin; C-terminal amide).
T4 construct: range 21-35
In words: peptide EIA, 2 ug/mL IgG.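 Note: purified mouse IgG binding to individually well-coated synthetic peptides, detected with peroxidase anti-mouse IgG Fc and o-phenylenediamine, IgG incubated at least 1 h at room temperature.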

In assay [3] the target is T1, C113WT biotin labeled HCV core peptide. In words: capture EIA; Ab 3.906 ng/mL; bt-peptide 500 ng/mL.
Protocol: (§1) Assay wells were coated with sheep anti-mouse IgG Fc specific antibody and incubated overnight. The coating solution was then removed; the wells blocked using BSA/tween in PBS and then washed with dH2O. […] Next, biotin labeled peptides (diluted to 500 ng/mL in block) were added, the plates incubated for 10 minutes while shaking at 700 rpm and then washed. Peroxidase conjugated streptavidin (diluted to 200 ng/mL in block) was then added to all assay wells, incubated for 20 minutes while shaking at 700 rpm and then washed. Finally, color was developed using OPD and signal quenched using 1N H₂SO₄. Signal was read at 492 nm.
Assay [4] addresses T5, Mut1T110N biotin labeled HCV core peptide (hepatitis C virus, biotin labeled (position not given)).
T5 peptide: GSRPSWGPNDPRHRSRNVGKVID
In words: capture EIA; Ab 3.906 ng/mL; bt-peptide 500 ng/mL.

Assay [5] addresses T6, WT1STHV biotin labeled HCV core peptide (hepatitis C virus, biotin labeled (position not given)).
T6 peptide: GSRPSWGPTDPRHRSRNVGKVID
The assay can be described thus: capture EIA; Ab 3.906 ng/mL; bt-peptide 500 ng/mL.

Assay [6] addresses T7, 92-133 biotin labeled HCV core peptide (hepatitis C virus, UniProt Q9WMX2 92-133, chain 1: biotin label (bt-pep). Its position and any spacer are not visible in the passages shown.).
T7 construct: Only the label 92-133 is printed
T7 peptide: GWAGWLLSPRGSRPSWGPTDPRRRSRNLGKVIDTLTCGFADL
The assay can be described thus: capture EIA; Ab 3.906 ng/mL; bt-peptide 500 ng/mL.
Protocol: as §1

Assay [7] has as its target T2, C113T109N biotin labeled HCV core …. The assay can be described thus: capture EIA; Ab 3.906 ng/mL; bt-peptide 500 ng/mL.
Protocol: as §1
Assay [8] has as its target T8, Mut6T110S biotin labeled HCV core peptide (hepatitis C virus, biotin labeled (position not given)). In words: capture EIA; Ab 3.906 ng/mL; bt-peptide 500 ng/mL.
For assay [9], the target named is T1, C113WT biotin labeled HCV core peptide. The assay can be described thus: capture EIA; Ab 1000 ng/mL; bt-peptide 500 ng/mL.
Protocol: as §1
The target in assay [10] is T5, Mut1T110N biotin labeled HCV core …. The assay can be described thus: capture EIA; Ab 1000 ng/mL; bt-peptide 500 ng/mL.
Protocol: as §1
Assay [11] deals with T6, WT1STHV biotin labeled HCV core peptide. In words: capture EIA; Ab 1000 ng/mL; bt-peptide 500 ng/mL.
Protocol: as §1
Assay [12] has as its target T7, 92-133 biotin labeled HCV core peptide. In words: capture EIA; Ab 1000 ng/mL; bt-peptide 500 ng/mL.
Protocol: as §1
Assay [13] addresses T2, C113T109N biotin labeled HCV core …. The assay can be described thus: capture EIA; Ab 1000 ng/mL; bt-peptide 500 ng/mL.
Protocol: as §1
Assay [14] has as its target T8, Mut6T110S biotin labeled HCV core …. The assay can be described thus: capture EIA; Ab 1000 ng/mL; bt-peptide 500 ng/mL.
Protocol: as §1

Where no end group is shown, it is not given here.

B1: Neo4 mouse monoclonal antibody (antibody, V domains shown)
VH: QIQLKESGPAVIKPSQSLSLTCIVSGFSITSSVYCWQWIRQPPGKGLEWMGRICYDGSVDYSPSITSRGTISRDTSLNKVFFQLSSVTNEDTAMYYCSRENHIDYYDTTYPSFDVWGAGTTVTVSS
VL: DIVLTQSPASLIVSLGQRATISCRASKSVNEYGYTYMHWYQQKPGLPPKLLIYLASNLDSGVPARFSGSGSGTDFTLNIHPVEEEDAATYYCQHSRELPYTFGGGTKLEIKR
notes: Mouse hybridoma antibody, isotype IgG1, purified with Protein G; also called HCV Neo4
With B1, the binding result in assay [1] and in assay [2] was “no binding” in each case. The “OD (A492 nm)” value in the assay with HCV core peptide 80, with HCV core peptide 57, with HCV core peptide 36 and in the assay with HCV core peptide 11 was 0.05 OD in each case. Moreover, the “signal at 492 nm” value is 0.0694 A492 in [3]; 0.0719 A492 in assay [4]; 0.669 A492 in assay [5]; 0.217 A492 in assay [6]; 0.0717 A492 in assay [7]; 0.0847 A492 in [8]. Besides, the “signal at 492 nm” value in assay [9] stood at 0.222 A492; in assay [10], 0.0678 A492; in assay [11], 2 A492; in [12] it was 1.41 A492; in assay [13] it was 0.0591 A492; in assay [14], 1.17 A492.
